Where a chain is given by its changes, count along the chain named. Numbers in names are those of the source. Read-outs that look alike come from different tables or passages of the source. Blank lines part the entries; values can stand above or below the binder they belong to.
Experiments:
mouse 4-1BB [1] = biological target: T1, mouse 4-1BB (mouse, UniProt P20334 24-187); assay: SPR (Biacore)
T1 construct: also called mu4-1BB; murine 4-1BB
T1 sequence (looked up): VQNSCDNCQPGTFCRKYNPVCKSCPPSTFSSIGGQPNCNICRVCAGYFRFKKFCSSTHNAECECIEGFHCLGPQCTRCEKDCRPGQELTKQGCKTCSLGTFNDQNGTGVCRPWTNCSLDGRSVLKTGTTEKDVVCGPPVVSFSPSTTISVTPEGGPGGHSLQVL

[2] = biological target: human CD40 on cells (HEK293 stable transfectants, HEK-Blue CD40 cells, human B cells, monocytic cells, … (human, UniProt P25942 21-277)); assay: cell-based or functional assay
Sequence of human CD40 on cells (HEK293 stable transfectants, HEK-Blue CD40 cells, human B cells, monocytic cells, … (P25942 21-277 limits assumed): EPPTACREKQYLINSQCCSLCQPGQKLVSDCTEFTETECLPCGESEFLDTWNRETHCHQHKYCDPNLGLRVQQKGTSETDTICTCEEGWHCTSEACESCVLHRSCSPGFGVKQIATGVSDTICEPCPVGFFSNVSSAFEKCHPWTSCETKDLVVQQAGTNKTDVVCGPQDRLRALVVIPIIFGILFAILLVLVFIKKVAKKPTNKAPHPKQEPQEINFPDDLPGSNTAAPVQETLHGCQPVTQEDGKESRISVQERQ

mouse CD40 = biological target: T2, mouse CD40 (mouse, UniProt P27512 20-193, limits assumed); assay: FACS
T2 construct: also called murine CD40
T2 sequence (looked up): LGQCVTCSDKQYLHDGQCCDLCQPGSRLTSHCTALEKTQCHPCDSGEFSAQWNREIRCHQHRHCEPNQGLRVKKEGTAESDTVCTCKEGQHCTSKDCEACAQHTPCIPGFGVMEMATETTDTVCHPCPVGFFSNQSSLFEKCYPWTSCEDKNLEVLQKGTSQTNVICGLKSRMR

dog CD40 = biological target: T3, dog CD40 (dog, UniProt Q7YRL5 21-194, limits assumed); assay: FACS
T3 sequence (looked up): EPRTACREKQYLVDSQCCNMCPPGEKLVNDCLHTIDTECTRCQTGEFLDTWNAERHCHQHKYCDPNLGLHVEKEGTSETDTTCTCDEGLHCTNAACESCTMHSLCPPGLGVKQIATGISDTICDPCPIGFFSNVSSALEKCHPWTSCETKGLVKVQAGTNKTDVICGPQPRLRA

[3] = biological target: T4, soluble form of the extracellular domain of cynomolgus (cyno) CD40 (Creative BioMart) (cynomolgus, UniProt G7PG38 21-193); assay: SPR
T4 construct: extracellular domain; also called Cynomolgus CD40

[4] = biological target: T5, soluble form of the extracellular domain of human CD40 (Creative BioMart) (human, UniProt P25942 21-193); assay: SPR
T5 construct: Bought
T5 sequence (P25942 21-193 limits assumed): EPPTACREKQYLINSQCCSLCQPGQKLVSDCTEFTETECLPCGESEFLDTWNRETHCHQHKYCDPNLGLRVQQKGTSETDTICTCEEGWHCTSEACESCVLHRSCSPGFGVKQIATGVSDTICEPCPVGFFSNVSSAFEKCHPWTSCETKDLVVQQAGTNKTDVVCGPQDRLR

human mesothelin = biological target: T6, human mesothelin (human, UniProt Q13421 296-580, limits assumed); assay: SPR
T6 construct: also called Human MSLN
T6 sequence (Q13421 other isoform, or with tags, fused parts or gaps limits assumed): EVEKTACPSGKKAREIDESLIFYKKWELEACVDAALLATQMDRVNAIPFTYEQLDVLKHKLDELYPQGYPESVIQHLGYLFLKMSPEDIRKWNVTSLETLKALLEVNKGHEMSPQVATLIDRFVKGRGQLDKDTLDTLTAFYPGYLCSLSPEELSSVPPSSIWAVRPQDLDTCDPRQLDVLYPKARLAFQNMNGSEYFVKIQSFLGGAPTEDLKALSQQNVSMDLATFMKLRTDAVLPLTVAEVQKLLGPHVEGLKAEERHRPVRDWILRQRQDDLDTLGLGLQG

human 4-1BB [5] = biological target: T7, human 4-1BB (human, UniProt Q07011 24-186); assay: SPR
T7 construct: SPR (Biacore) analyte; also called hu4-1BB

mouse 4-1BB [6] = biological target: T1, mouse 4-1BB; assay: SPR
cynomolgus 4-1BB = biological target: T8, cynomolgus 4-1BB (cynomolgus, UniProt A9YYE7 24-186); assay: SPR
T8 sequence: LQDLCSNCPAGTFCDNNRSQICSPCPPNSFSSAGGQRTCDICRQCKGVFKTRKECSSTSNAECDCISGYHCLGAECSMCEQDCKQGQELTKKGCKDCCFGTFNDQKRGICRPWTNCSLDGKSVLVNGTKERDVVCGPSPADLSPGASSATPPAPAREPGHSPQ

human 4-1BB [7] = biological target: T7, human 4-1BB; assay: SPR; remark: listed apart in the source
mouse 4-1BB [8] = biological target: T1, mouse 4-1BB; assay: SPR; remark: listed apart in the source

- Kd [3]: 120 nM
- koff [3]: 0.11 s⁻¹
- kon [3]: 940000 M⁻¹ s⁻¹
- Kd [4]: 150 nM
- koff [4]: 0.25 s⁻¹
- kon [4]: 1.7e+06 M⁻¹ s⁻¹
- Kd (human mesothelin): 2 nM
- koff (human mesothelin): 2.8e-05 s⁻¹
- kon (human mesothelin): 14000 M⁻¹ s⁻¹
B5: V5-2 (bispecific antibody)
chain 1: EVQLQESGPGLVKPSETLSLTCTVSGYSITSNYYWNWIRQPPGKGLEWMGYIRYDGSNNYNPSLKNRVTISRDTSKNQFSLKLSSVTAADTAVYYCARLDYWGQGTTVTVSS
chain 2: DAVMTQTPLSLSVTPGQPASISCRSSQSLENTNGNTFLNWYLQKPGQSPQLLIYRVSNRFSGVPDRFSGSGSGTDFTLKISRVEAEDVGVYYCLQVTHVPFTFGQGTKLEIK
chain 3: EVQLVQSGAEVKKPGASVKVSCKASGDTFKRYYVHWVRQAPGQGLEWMGIINPSGVSTTYAQKFQGRVTMTRDTSTSTVYMELSSLRSEDTAVYYCAEVRGSGFNYFGMDVWGQGTLVTVSS
chain 4: SYELTQPPSVSVSPGQTASITCSGDKLGDKYASWYQQKPGQSPVLVIYQDNRRPSGIPERFSGSNSGNTATLTISGTQAMDEADYYCQAWDSDTYVFGTGTKVTVL

- Kd (mouse 4-1BB [1]): 6.7 nM
- Kd (human 4-1BB [5]): 0.32 nM
- koff (human 4-1BB [5]): 0.00014 s⁻¹
- kon (human 4-1BB [5]): 450000 M⁻¹ s⁻¹
- Kd (mouse 4-1BB [6]): 6.7 nM
- koff (mouse 4-1BB [6]): 0.0016 s⁻¹
- kon (mouse 4-1BB [6]): 240000 M⁻¹ s⁻¹
- Kd (cynomolgus 4-1BB): 0.36 nM
- koff (cynomolgus 4-1BB): 0.00013 s⁻¹
- kon (cynomolgus 4-1BB): 350000 M⁻¹ s⁻¹
B6: TABBY107-rIgG1 (antibody, V domains shown)
VH: QVKLVQSGAALVKPGASVKMSCKASDYTFNDYWVSWVKQRHGESLEWIGEIYPNSGATNFNGKFRGKATLTVDNPTSTAYMELSRLTSEDSAIYYCTREYTRDWFAYWGQGTLVTVSS
VL: DVVLTQTPSILSATIGQSVSISCRSSQSLLDSDGNTYLYWFLQRPGQSPQRLIYLVSNLGSGVPNRFSGSGSGTDFTLKISGVEAEDLGIYYCMQPTHAPYTFGAGTKLELK
notes: rat IgG1, kappa

- Kd (mouse 4-1BB [1]): 0.14 nM
B9: TABBY104-rIgG1 (antibody, V domains shown)
VH: QVTLKESGPGILQPSQTLSLTCTFSGFSLSTDGLGVTWIRQPSGKGLEWLANIWWDDDKDYNPSLKNRLTISKDTSNPQAFLKITNVDTADTATYYCARIVPNSGHEDYWGQGVMVIVSS
VL: DIQMTQSPSFLSASVGDRVTINCKASQNINRYLNWYQQKLGEAPKLLMYNTNSMQTGIPSRFSGSGSGTDFTLTISSLQPEDVATYFCLQHNSWPRTFGGGTKLELK
notes: rat IgG1, kappa

- Kd (mouse 4-1BB [1]): 0.84 nM
B10: TABBY102-rIgG1 (antibody, V domains shown)
VH: QVQLQQSGAELAKPGSSVKISCKASGYTLTSYYLNWIKQTTGQGLEYIGYIDTGSGGSHYNEKFKGKATLTVDKSSSTAFMQLSSLTPVDSAVYYCARGGYYDGFFDYWGQGVMVTVSS
VL: DIQMTQSPASLSASLGETVSIECLASEGISNDLAWYQQKSGKSPQFLIYAASRLQDGVPSRFSGSGSGTRYSLKISGMQPEDEADYFCQQSYKYPPTFGSGTKLEIK
notes: rat IgG1, kappa

- Kd (human 4-1BB [7]): 130 nM
- koff (human 4-1BB [7]): 0.074 s⁻¹
- kon (human 4-1BB [7]): 570000 M⁻¹ s⁻¹
- Kd (mouse 4-1BB [8]): 17 nM
- koff (mouse 4-1BB [8]): 0.036 s⁻¹
- kon (mouse 4-1BB [8]): 2.2e+06 M⁻¹ s⁻¹
B11: hu106-1 (antibody, V domains shown)
VH: EVQLVQSGAEVKKPGSSVKVSCKASGYTFTSYYIYWVRQAPGQGLEWIGNIWPGNGGTFYGEKFMGRATFTADTSTSTAYMELSSLRSEDTAVYYCARRPDYSGDDYFDYWGQGTLVTVSS
VL: NVMLTQPHSVSESPGKTVTISCKLNSGNIGSYYVHWYQQRPGSSPTTMIYRDDKRPDGVPDRFSGSIDSSSNSASLTISGLKTEDEADYYCHSYDSTITPVFGGGTKLTVL
notes: human IgG1 constant regions with L234A and L235A

- Kd (mouse 4-1BB [1]): 1.6 nM
- Kd (human 4-1BB [5]): 12 nM
- koff (human 4-1BB [5]): 0.026 s⁻¹
- kon (human 4-1BB [5]): 2.2e+06 M⁻¹ s⁻¹
- Kd (mouse 4-1BB [6]): 1.6 nM
- koff (mouse 4-1BB [6]): 0.013 s⁻¹
- kon (mouse 4-1BB [6]): 8.1e+06 M⁻¹ s⁻¹
- Kd (cynomolgus 4-1BB): 18 nM
- koff (cynomolgus 4-1BB): 0.022 s⁻¹
- kon (cynomolgus 4-1BB): 1.2e+06 M⁻¹ s⁻¹
B12: TABBY106-rIgG1 (antibody, V domains shown)
VH: QVQLQQSGAELAKPGTSVKLSCKASGYTFTSYYIYWVKQRPGQGLEWIGNIWPGNGGTFYGEKFMGKATFTADTSSSTAYMLLGSLTPEDSAYYFCARRPDYSGDDYFDYWGQGVLVTVSS
VL: QVVLTQPKSVSTSLKSTVKLSCKLNSGNIGSYYVHWYQQHAGRSPTTMIYRDDKRPDGVPDRFSGSIDSSSNSAFLTINNVQTEDDAIYFCHSYDSTITPVFGGGTKLTVL
notes: rat IgG1, lambda

More lines, now with the values behind:

B1: TABBY101-rIgG1 (antibody, V domains shown)
VH: QIQLVQSGPELKKPGESVKISCKASGYTFTDFAIHWVKQAPGKGLKWMGWINTYTGKPTYADDFKGRFVFSLEASASTANLQISNLKNEDTATYFCSRGAPRPTNWGQGTLVTVSS
VL: DIQMTQSPASLSASLGETVSIECLASEDIYNNLAWYQQKPGKSPQLLIYYESRLQDGVPTRFSGSGSGTQYSLKINSLESEDAATYFCLQDSEYPYTFGAGTKLELK
notes: rat IgG1, kappa
- Kd (mouse 4-1BB [1]): 0.82 nM

B2: TABBY103-rIgG1 (antibody, V domains shown)
VH: QVQLQQSGAELVKPGSSVKISCKASDYTFTSNFLHWIKQQPGNGLEWIGWINPGDGDTYYNQKFNGKATLTADKSSTTAYMQLSSLTSEDSAVYFCAGGNYYAAHYPPGPWYFDFWGPGTMVTVSS
VL: DTVLTQSPALAVSLGQRVTISCRASKSVSIYMHWYQQKSGQQPKFLIYTASNLESGVPSRFSGSGSGTDFTLTIDPVEADDIANYYCQQSNELPFTFGSGTKLEIK
notes: rat IgG1, kappa
- Kd (mouse 4-1BB [1]): 0.17 nM

B3: huAb9-6 (antibody, human IgG1, V domains shown)
VH: B5 chain 1 with T30S, N66S
VL: B5 chain 2
notes: human IgG1, kappa
- Maximal activation (OD655) [2]: 0.54 OD655
- NF-κB activation EC50, HEK293 CD40 NFκB reporter cells [2]: 5.95 µg/mL
- binding result (mouse CD40): no binding
- binding result (dog CD40): no binding

B4: V6-8 (bispecific antibody)
chain 1: B5 chain 1
chain 2: DAQMTQSPSSLSASVGDRVTITCRSSQSLENTNGNTFLNWFQQKPGKAPKLLIYRVSNRFSGVPSRFSGSGSGTDFTLTISSLQPEDFATYYCLQVTHVPFTFGQGTKLEIK
chain 3: EVQLLESGGGLVQPGGSLRLSCAASGFTFSSYAMSWVRQAPGKGLEWVSAISGGGGRTYYADSVKGRFTISRDNSKNTLYLQMNSLRAEDTAVYYCAREEMAFRAYRFDIWGQGTLVTVSS
chain 4: not shown
- Kd [3]: 11 nM
- koff [3]: 0.013 s⁻¹
- kon [3]: 1.3e+06 M⁻¹ s⁻¹
- Kd [4]: 14 nM
- koff [4]: 0.014 s⁻¹
- kon [4]: 970000 M⁻¹ s⁻¹
- Kd (human mesothelin): 11 nM
- koff (human mesothelin): 0.0015 s⁻¹
- kon (human mesothelin): 130000 M⁻¹ s⁻¹

B7: TABBY105-rIgG2a (antibody, V domains shown)
VH: EVQLVESGGGLVQPGRSMKLSCAASGFTFNNYDMAWVCQAPKRGLEWVATISYDGSTTYYRDSVKGRFTFSRDNAKSTLYLQMDSLRSEDTATYYCARVGAGDFDYWGQGVMVTVSS
VL: DIRMTQSPVSLSTSLGETVNIECLASEDIYSDLAWYQQKPGKSPQLLIYSTNTLQNGVPSRFSGSGSGTQYSLKINSLQSEDVATYFCQQNNNYPYTFGAGTKLELK
notes: rat IgG2a, kappa
- Kd (mouse 4-1BB [1]): 15 nM

B8: TABBY108-rIgG1 (antibody, V domains shown)
VH: EIQLQESGPGLVRPSQSLSLACSVTGYTITSAYDWSWIRKFPGNKMEWMGYIAYIGFTNSNPSLKSRISITRDTSKNQFFLQLKSVTTEDTATYYCARWSSYIPRYFDFWGPGTMVTVSS
VL: QAVLTQPNSVSTSLGSTVKLSCTITSGNIEDNFVHWYQHYEGRSPTTMIHNDDKRPDGVPDRFSGSIDSSSNSAFLTINNVEIEDEAIYFCHSYVSSINIFGGGTKLTVL
notes: rat IgG1
- Kd (mouse 4-1BB [1]): 0.36 nM
